Target: the molecule itself
Assay: SEC

B1: 3′-5′ exonuclease domain of human EXD2 (residues 76−295, EXD2-exo) (domain or fragment, UniProt Q9NVH0 76-295, looked up)
chain: KAKVVTVSQEAEWDQIEPLLRSELEDFPVLGIDCEWVNLEGKASPLSLLQMASPSGLCVLVRLPKLICGGKTLPRTLLDILADGTILKVGVGCSEDASKLLQDYGLVVRGCLDLRYLAMRQRNNLLCNGLSLKSLAETVLNFPLDKSLLLRCSNWDAETLTEDQVIYAARDAQISVALFLHLLGYPFSRNSPGEKNDDHSSWRKVLEKCQGVVDIPFRSK
Question: For B1, which “stoichiometry N” value is on record?
Answer: Its value is 2.

Reference: paper PMC6648332 (Nucleic Acids Research, 2019)
